As a reminder, the EC50 is the concentration giving half of the maximal effect. One may read the Kd as a measure of binding affinity in units of concentration.

Numbering of substitutions follows the chain as printed. Where two headings read alike, the source gives them in different places.

These results are taken from USRE46585 (LABORATOIRE FRANCAIS DU FRACTIONNEMENT ET DES …, dated 2017).

The target in assay [1] is T1, FcRn-p3 fusion protein (human, UniProt P55899 24-297; P61769 21-119).
T1 construct: baculovirus expressed; coated on ELISA wells; not shown: amino terminal part of bacteriophage p3 protein and CVDE protein
T1 sequence (P55899 24-297, chain 1 of 2): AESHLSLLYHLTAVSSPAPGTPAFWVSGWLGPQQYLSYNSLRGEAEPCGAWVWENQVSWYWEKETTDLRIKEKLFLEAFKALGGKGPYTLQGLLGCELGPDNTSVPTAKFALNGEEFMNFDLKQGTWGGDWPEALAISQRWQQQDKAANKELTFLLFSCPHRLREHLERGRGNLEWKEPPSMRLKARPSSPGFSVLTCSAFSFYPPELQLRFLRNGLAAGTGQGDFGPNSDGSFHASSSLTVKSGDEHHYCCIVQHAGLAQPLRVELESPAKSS
T1 sequence (P61769 21-119, chain 2 of 2): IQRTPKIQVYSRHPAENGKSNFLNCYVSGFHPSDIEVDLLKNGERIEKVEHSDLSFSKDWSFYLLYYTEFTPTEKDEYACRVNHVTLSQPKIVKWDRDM
Kind of assay: phage ELISA pH6 (est.). (In an ELISA, binding on a coated surface is turned into a signal by an enzyme label.)

In assay [2] the target is T1, FcRn-p3 fusion protein. Kind of assay: phage ELISA pH6 (est.). This is another data set of the same source.
Assay [3] has as its target T1, FcRn-p3 fusion protein. Kind of assay: phage ELISA pH6.
The target of assay [4] is T1, FcRn-p3 fusion protein. Kind of assay: phage ELISA pH6 (est.). The source holds these as a separate data set.
Assay [5] concerns the target T1, FcRn-p3 fusion protein. Kind of assay: phage ELISA pH6. This is another data set of the same source.
In assay [6] the target is T1, FcRn-p3 fusion protein. The assay is described as follows: phage ELISA pH6. This is another data set of the same source.
The target in assay [7] is T1, FcRn-p3 fusion protein. The assay is described as follows: ELISA pH6, soluble Fc on coated FcRn-p3.
The target of assay [8] is T2, recombinant soluble human FcRn (human, UniProt P55899 24-297; P61769 21-119).
T2 construct: amine-coupled to the SPR chip
T2 sequence (P55899 24-297, chain 1 of 2): as the sequence (P55899 24-297, chain 1 of 2) above
T2 sequence (P61769 21-119, chain 2 of 2): as the sequence (P61769 21-119, chain 2 of 2) above
The assay is described as follows: SPR pH6, immobilized FcRn, steady state.

Assay [9] addresses T1, FcRn-p3 fusion protein. Kind of assay: phage ELISA pH6. The source holds these as a separate data set.
The target in assay [10] is T1, FcRn-p3 fusion protein. Kind of assay: ELISA pH6, soluble Fc on coated FcRn-p3. This is another data set of the same source.
For assay [11], the target named is T2, recombinant soluble human FcRn. The assay is described as follows: SPR pH6, immobilized FcRn, steady state. This is another data set of the same source.

B1: C6A_69 (other)
chain: CPPCPAPELLGGPSVFLFPPKPKDTLMISRTPEVTCVVVDVSHEDPEVKFNWYVDGVEVHNAKTKPREEQYNSTYRVVSVLAVLHQDWLDGKEYKCKVSNKALPVPIEKTISKAKGQPREPQVYTLPPSRDELTKNQVSLTCLVKGFYPSDIAVEWVSNGQPETNYKTTPPVLDSDGSFFLYSKLTVDKSRWQQGNVFSCSVMHEALHYHYTQKSLSLSPGK
notes: EU numbering
Regarding B1, the Ratio/FWT with FcRn-p3 fusion protein [1] turned out to be 28.4 fold. For the same molecule, the “phage-ELISA ratio/WT” value with FcRn-p3 fusion protein [2] came to 28.4 fold. Also, the Ratio/Fc-H with FcRn-p3 fusion protein [3] and in the assay with FcRn-p3 fusion protein [5] was 8.9 fold in each case. In addition, in the assay with FcRn-p3 fusion protein [4], the Ratio/Fc-WT was determined as 28.4 fold.

B2: S4A_17 (other)
chain: B1 chain with V77A, A82T, D90N, V105A, V157E, Y209S
notes: EU numbering
Turning to B2, in the assay with FcRn-p3 fusion protein [6], the Ratio/Fc-WT is 3.8 fold.

B3: S4A_42 (other)
chain: B1 chain with V39A, A82T, D90N, V105A, V157E, T164N, G221A
notes: EU numbering
Take B3: the Ratio/Fc-WT with FcRn-p3 fusion protein [6] worked out at 4.2 fold.

B4: C6A_69 (soluble recombinant Fc polypeptide) (other)
chain: B1 chain
notes: EU numbering; E. coli periplasmic expression; not shown: C-terminal 6xHis tag and V5 tag
In the case of B4, in the assay with FcRn-p3 fusion protein [7], the EC50 amounted to 3.7 nM and the “ELISA ratio/Fc-WT (Fc-WT EC50 / variant EC50)” value is 124 fold. Further, in assay [8], the dissociation constant (Kd) was found to be 7.2 nM and the “SPR Ratio/Fc-WT (Fc-WT Kd / variant Kd)” value is 4.2 fold.

B5: C6A_72 (other)
chain: B1 chain with T25A, A82T, D90N, V105A, V157E, T164K
notes: EU numbering
Regarding B5, in the assay with FcRn-p3 fusion protein [1], the Ratio/FWT turned out to be 25.7 fold. Also, the “phage-ELISA ratio/WT” value with FcRn-p3 fusion protein [2] was 25.7 fold. Also, the Ratio/Fc-H with FcRn-p3 fusion protein [3] and with FcRn-p3 fusion protein [5] was 8 fold throughout. In the assay with FcRn-p3 fusion protein [4], the Ratio/Fc-WT worked out at 25.7 fold.

B6: S5A_43 (other)
chain: B1 chain with P5S, V59L, A82T, D90N, V105A, A153V, V157E, T164N, Y209N
notes: EU numbering
On to B6, for which, in the assay with FcRn-p3 fusion protein [6], the Ratio/Fc-WT was 5.7 fold.

B7: S4A_24 (other)
chain: B1 chain with V39E, R76C, A82T, D90N, V105A, A153V, V157G, T164N, Y209N
notes: EU numbering
With B7, the Ratio/Fc-WT with FcRn-p3 fusion protein [6] was found to be 5.4 fold.

B8: S3A_07 (other)
chain: B1 chain with V39E, A82T, D90N, V105A, A153V, V157G, T164N, Y209N
notes: EU numbering
B8: the “phage-ELISA Ratio/Fc-WT” value with FcRn-p3 fusion protein [9] worked out at 3.5 fold. Besides, the Ratio/Fc-WT in the assay with FcRn-p3 fusion protein [6] came to 3.5 fold.

B9: T5A_78 (soluble recombinant Fc polypeptide) (other)
chain: B1 chain with V39E, A82T, D90N, V105A, V157E, Q161R, T164N, P171L, Y209S, K214R
notes: as for B4
With B9, the Kd in [8] is 12.4 nM.

B10: S5A_26 (other)
chain: B1 chain with A82T, Q86R, D90N, V105A, K109R, Q117E, V157E, T164N
notes: EU numbering
Consider B10, for which the Ratio/Fc-WT in the assay with FcRn-p3 fusion protein [6] was 7.9 fold.

B11: S5A_07 (other)
chain: B1 chain with A82T, D90N, V105A, A153V, V157E, T164N, N196T, Y209S
notes: EU numbering
For B11, the Ratio/Fc-WT with FcRn-p3 fusion protein [6] came out at 5.1 fold.

B12: SSA_20 (other)
chain: B1 chain with P5Q, F16Y, K21R, D45E, A82T, D90N, V105A, V157E, T164N, Y209N
notes: EU numbering; also called S5A_20 (probable reading)
Turning to B12, in the assay with FcRn-p3 fusion protein [6], the Ratio/Fc-WT is 4.3 fold.

B13: S6A_48 (other)
chain: B1 chain with A82T, D90N, V105A, R130Q, V157E, T164N, K167E, T168N, S201T
notes: EU numbering
Consider B13, for which the Ratio/Fc-WT with FcRn-p3 fusion protein [6] was 4.4 fold.

B14: C6A_74 (soluble recombinant Fc polypeptide) (other)
chain: B1 chain with V34I, A82T, V105A, V157E, T164N
notes: as for B4
The molecule B14 yielded an EC50 with FcRn-p3 fusion protein [7] of 7.3 nM. For the same molecule, in assay [8], the dissociation constant Kd came to 5.9 nM.

B15: C6A_72 (soluble recombinant Fc polypeptide) (other)
chain: B1 chain with T25A, A82T, D90N, V105A, V157E, T164K
notes: as for B4
Consider B15, for which, in the assay with FcRn-p3 fusion protein [7], a half-maximal effect (EC50) was put at 7.8 nM and the “ELISA ratio/Fc-WT (Fc-WT EC50 / variant EC50)” value turned out to be 59 fold. In assay [8], the Kd was determined as 12.4 nM and the “SPR Ratio/Fc-WT (Fc-WT Kd / variant Kd)” value is 2.4 fold.

B16: T5A_74 (soluble recombinant Fc polypeptide) (other)
chain: B1 chain with A82T, N136D, A153V, V157E, T164N
notes: as for B4
In turn, B16 yielded an EC50 with FcRn-p3 fusion protein [7] of 5.5 nM.

B17: T5A_81 (soluble recombinant Fc polypeptide) (other)
chain: B1 chain with V39E, A82T, D90N, V105A, A153V, V157E, T164N, R191K, Y209N
notes: as for B4
Turning to B17, in the assay with FcRn-p3 fusion protein [7], the EC50 was 145 nM and the “ELISA ratio/Fc-WT (Fc-WT EC50 / variant EC50)” value came to 3 fold. Moreover, in [8], the dissociation constant Kd was 22.7 nM and the “SPR Ratio/Fc-WT (Fc-WT Kd / variant Kd)” value came to 1.3 fold.

B18: S4A_14 (other)
chain: B1 chain with N51S, A82T, D90N, V105A, A153V, V157E, T164N, Y209S
notes: EU numbering
Turning to B18, the Ratio/Fc-WT with FcRn-p3 fusion protein [6] is 5.9 fold.

B19: T5A_94 (soluble recombinant Fc polypeptide) (other)
chain: B1 chain with V39E, A82T, D90N, V105A, A153T, V157E, T164N, P171L, Y209N
notes: as for B4
For B19, the EC50 in the assay with FcRn-p3 fusion protein [7] worked out at 166 nM. Moreover, the Kd in [8] was 13.7 nM.

B20: S4A_25 (other)
chain: B1 chain with D40G, A82T, D90N, V105A, V157E, T164N, S183T, S219F
notes: EU numbering
Regarding B20, the Ratio/Fc-WT with FcRn-p3 fusion protein [6] stood at 4.2 fold.

B21: S3A_07 (soluble recombinant Fc polypeptide) (other)
chain: B1 chain with V39E, A82T, D90N, V105A, A153V, V157G, T164N, Y209N
notes: as for B4
As for B21, in the assay with FcRn-p3 fusion protein [10], the “Fc-rec-ELISA Ratio/WT” value was determined as 25.3 fold. The “SPR Ratio/Fc-WT (Fc-WT Kd / variant Kd)” value in assay [11] was found to be 5.2 fold.

B22: S4A_36 (other)
chain: B1 chain with P5Q, V39A, A82T, D90N, V105A, P127S, A153V, V157E, T164N, Y209N
notes: EU numbering
As for B22, the Ratio/Fc-WT with FcRn-p3 fusion protein [6] was found to be 4.5 fold.

B23: C6A_60 (soluble recombinant Fc polypeptide) (other)
chain: B1 chain with P5S, A82T, V105A, V157E, T164N, M203L
notes: as for B4
B23 registered an EC50 in the assay with FcRn-p3 fusion protein [7] of 2.6 nM.

B24: T5A_58 (soluble recombinant Fc polypeptide) (other)
chain: B1 chain with F16L, V39E, A82P, D90N, V105A, A153V, V157E, T164N, H208R, Y209N
notes: as for B4
As to B24, the Kd in assay [8] was 15.4 nM.

B25: S4A_07 (other)
chain: B1 chain with A82P, D90N, V105A, V157E
notes: EU numbering
As for B25, in the assay with FcRn-p3 fusion protein [6], the Ratio/Fc-WT came to 6.6 fold.

B26: T5A_81 (other)
chain: B1 chain with V39E, A82T, D90N, V105A, A153V, V157E, T164N, R191K, Y209N
notes: EU numbering
As to B26, in the assay with FcRn-p3 fusion protein [1], the Ratio/FWT worked out at 14.9 fold. Also, the “phage-ELISA ratio/WT” value with FcRn-p3 fusion protein [2] worked out at 14.9 fold. Also, the Ratio/Fc-H in the assay with FcRn-p3 fusion protein [3] and with FcRn-p3 fusion protein [5] was 4.6 fold each time. Moreover, the Ratio/Fc-WT with FcRn-p3 fusion protein [4] worked out at 14.9 fold.

B27: C6A_66 (soluble recombinant Fc polypeptide) (other)
chain: CPPCPAPELLGGPSVFLFPPKPKDTLMISRTPEVTCVVVDVSHEDPEVKFNWYVDGVEVHNAKTKPREQYNSTYRVVSVLPVLHQDWLNGKEYKCKVSNKALPAPIEKTISKAKGQPREPQVYTLPPSRDELTKNQVSLTCLVKGFYPSDIAVEWESNGQPENNYKTTPPVLDSDGSFFLYSKLTVDKSRWQQGNVFSCSVMHEALHYHYTQKSLSLSPGK
notes: EU numbering; E. coli periplasmic expression; E294del is a deletion; not shown: C-terminal 6xHis tag and V5 tag
In the assay with FcRn-p3 fusion protein [7], B27 yielded an EC50 of 4.9 nM.
